Assay results taken from article PMC5376962.

Target: Burkholderia pseudomallei N-type ATPase c-subunit (atpE), assembled into the c17 rotor ring, expressed alone in E. coli (Burkholderia pseudomallei)
Assay: cryo-EM structure

## Burkholderia pseudomallei N-type ATPase c-subunit (atpE), assembled into the c17 rotor ring, expressed alone in E. coli (natural protein)
  stoichiometry N: 17
